In patent US20110091994A1, “Methods for Screening Compounds for Treating and/or Preventing an Hepatitis C Virus Infection” (priority 2008, published 2011):

Experiments:
[1] = molecular target: T1, HCV proteins (Hepatitis C virus genotype 1b, UniProt Q9WMX2); assay: Validation by Y2H pairwise matrices; type: binding; settings: validation of interaction with HCV protein NS3;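 note: yeast two-hybrid pairwise tests of interactions first found in Y2H screens of HCV bait proteins against human cDNA libraries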
T1 construct: expressed in transfected cells
T1 sequence (Q9WMX2 1027-1657): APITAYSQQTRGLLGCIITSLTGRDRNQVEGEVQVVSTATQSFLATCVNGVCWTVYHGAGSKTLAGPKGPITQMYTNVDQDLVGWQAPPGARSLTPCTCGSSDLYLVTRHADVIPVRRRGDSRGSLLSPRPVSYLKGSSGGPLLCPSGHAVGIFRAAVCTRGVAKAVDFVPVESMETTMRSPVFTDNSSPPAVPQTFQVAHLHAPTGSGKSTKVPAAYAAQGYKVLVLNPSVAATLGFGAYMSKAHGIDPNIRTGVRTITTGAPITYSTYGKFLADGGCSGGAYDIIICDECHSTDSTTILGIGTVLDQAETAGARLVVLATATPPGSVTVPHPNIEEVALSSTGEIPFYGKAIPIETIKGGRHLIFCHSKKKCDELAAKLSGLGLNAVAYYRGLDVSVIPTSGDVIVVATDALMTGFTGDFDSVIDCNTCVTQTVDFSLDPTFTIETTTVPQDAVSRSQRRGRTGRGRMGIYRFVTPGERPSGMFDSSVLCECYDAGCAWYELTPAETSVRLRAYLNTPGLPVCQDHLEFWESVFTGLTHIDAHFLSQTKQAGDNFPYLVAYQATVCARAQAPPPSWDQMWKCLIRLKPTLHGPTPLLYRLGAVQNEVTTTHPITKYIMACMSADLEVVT

[2] = system: HCV ORFs (Gal4-DB fusions); type: binding, HCV genotype 1b, isolate con1; settings: human protein listed by gene symbol; the value names the HCV protein it interacts with
[3] = molecular target: T2, HCV ORFs (Gal4-DB fusions) (Hepatitis C virus genotype 1b, UniProt Q9WMX2); type: binding, HCV genotype 1b, isolate con1; settings: HCV protein NS3 as bait; human protein as prey
T2 construct: expressed in transfected cells; host or cells: Saccharomyces cerevisiae MAV203 (IMAP1) / AH109 (IMAP2)
T2 sequence (Q9WMX2 1027-1657): as above
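Throughout, for IMAP Y2H IMAP1 (number of IST): yeast two-hybrid screens using HCV genotype 1b proteins fused to Gal4-DB as baits against prey cDNA libraries from human spleen and foetal brain, IMAP1 via transformation and IMAP2 via mating.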
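Throughout, for IMAP Y2H IMAP2 (number of IST): yeast two-hybrid screens using HCV genotype 1b proteins fused to Gal4-DB as baits against prey cDNA libraries from human spleen and foetal brain, IMAP1 via transformation and IMAP2 via mating.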
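Throughout, for Interaction with viral protein: yeast two-hybrid screens using HCV genotype 1b proteins fused to Gal4-DB as baits against prey cDNA libraries from human spleen and foetal brain, IMAP1 via transformation and IMAP2 via mating.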

Row | Molecule | Y2H matrices [1] | Interaction with viral protein [2] | IMAP Y2H IMAP1 (number of IST) [3] | IMAP Y2H IMAP2 (number of IST) [3]
1 | CORO1B (protein, UniProt Q9BR76 1-489, looked up) Coronin-1B: MSFRKVVRQSKFRHVFGQPVKNDQCYEDIRVSRVTWDSTFCAVNPKFLAVIVEASGGGAFLVLPLSKTGRIDKAYPTVCGHTGPVLDIDWCPHNDEVIASGSEDCTVMVWQIPENGLTSPLTEPVVVLEGHTKRVGIIAWHPTARNVLLSAGCDNVVLIWNVGTAEELYRLDSLHPDLIYNVSWNHNGSLFCSACKDKSVRIIDPRRGTLVAEREKAHEGARPMRAIFLADGKVFTTGFSRMSERQLALWDPENLEEPMALQELDSSNGALLPFYDPDTSVVYVCGKGDSSIRYFEITEEPPYIHFLNTFTSKEPQRGMGSMPKRGLEVSKCEIARFYKLHERKCEPIVMTVPRKSDLFQDDLYPDTAGPEAALEAEEWVSGRDADPILISLREAYVPSKQRDLKISRRNVLSDSRPAMAPGSSHLGAPASTTTAADATPSGSLARAGEAGKLEEVMQELRALRALVKEQGDRICRLEEQLGRMENGDA | + | NS3 | 8 | –
2 | CCHCR1 (protein, UniProt Q8TD31 1-782, looked up) Coiled-coil alpha-helical rod …: MFPPSGSTGLIPPSHFQARPLSTLPRMAPTWLSDIPLVQPPGHQDVSERRLDTQRPQVTMWERDVSSDRQEPGRRGRSWGLEGSQALSQQAEVIVRQLQELRRLEEEVRLLRETSLQQKMRLEAQAMELEALARAEKAGRAEAEGLRAALAGAEVVRKNLEEGSQRELEEVQRLHQEQLSSLTQAHEEALSSLTSKAEGLEKSLSSLETRRAGEAKELAEAQREAELLRKQLSKTQEDLEAQVTLVENLRKYVGEQVPSEVHSQTWELERQKLLETMQHLQEDRDSLHATAELLQVRVQSLTHILALQEEELTRKVQPSDSLEPEFTRKCQSLLNRWREKVFALMVQLKAQELEHSDSVKQLKGQVASLQEKVTSQSQEQAILQRSLQDKAAEVEVERMGAKGLQLELSRAQEARRRWQQQTASAEEQLRLVVNAVSSSQIWLETTMAKVEGAAAQLPSLNNRLSYAVRKVHTIRGLIARKLALAQLRQESCPLPPPVTDVSLELQQLREERNRLDAELQLSARLIQQEVGRAREQGEAERQQLSKVAQQLEQELQQTQESLASLGLQLEVARQGQQESTEEAASLRQELTQQQELYGQALQEKVAEVETRLREQLSDTERRLNEARREHAKAVVSLRQIQRRAAQEKERSQELRRLQEEARKEEGQRLARRLQELERDKNLMLATLQQEGLLSRYKQQRLLTVLPSLLDKKKSVVSSPRPPECSASAPVAAAVPTRESIKGSLSVLLDDLQDLSEAISKEEAVCQGDNLDRCSSSNPQMSS | + | NS3 | 1 | 2
3 | CHPF (protein, UniProt Q8IZ52 1-775, looked up) Chondroitin sulfate synthase 2: MRASLLLSVLRPAGPVAVGISLGFTLSLLSVTWVEEPCGPGPPQPGDSELPPRGNTNAARRPNSVQPGAEREKPGAGEGAGENWEPRVLPYHPAQPGQAAKKAVRTRYISTELGIRQRLLVAVLTSQTTLPTLGVAVNRTLGHRLERVVFLTGARGRRAPPGMAVVTLGEERPIGHLHLALRHLLEQHGDDFDWFFLVPDTTYTEAHGLARLTGHLSLASAAHLYLGRPQDFIGGEPTPGRYCHGGFGVLLSRMLLQQLRPHLEGCRNDIVSARPDEWLGRCILDATGVGCTGDHEGVHYSHLELSPGEPVQEGDPHFRSALTAHPVRDPVHMYQLHKAFARAELERTYQEIQELQWEIQNTSHLAVDGDQAAAWPVGIPAPSRPASRFEVLRWDYFTEQHAFSCADGSPRCPLRGADRADVADVLGTALEELNRRYHPALRLQKQQLVNGYRRFDPARGMEYTLDLQLEALTPQGGRRPLTRRVQLLRPLSRVEILPVPYVTEASRLTVLLPLAAAERDLAPGFLEAFATAALEPGDAAAALTLLLLYEPRQAQRVAHADVFAPVKAHVAELERRFPGARVPWLSVQTAAPSPLRLMDLLSKKHPLDTLFLLAGPDTVLTPDFLNRCRMHAISGWQAFFPMHFQAFHPAVAPPQGPGPPELGRDTGRFDRQAASEACFYNSDYVAARGRLAAASEQEEELLESLDVYELFLHFSSLHVLRAVEPALLQRYRAQTCSARLSEDLYHRCLQSVLEGLGSRTQLAMLLFEQEQGNST | + | NS3 | 1 | –
4 | CTGF (protein, UniProt P29279 27-349, looked up) CCN family member 2: QNCSGPCRCPDEPAPRCPAGVSLVLDGCGCCRVCAKQLGELCTERDPCDPHKGLFCHFGSPANRKIGVCTAKDGAPCIFGGTVYRSGESFQSSCKYQCTCLDGAVGCMPLCSMDVRLPSPDCPFPRRVKLPGKCCEEWVCDEPKDQTVVGPALAAYRLEDTFGPDPTMIRANCLVQTTEWSACSKTCGMGISTRVTNDNASCRLEKQSRLCMVRPCEADLEENIKKGKKCIRTPKISKPIKFELSGCTSMKTYRAKFCGVCTDGRCCTPHRTTTLPVEFKCPDGEVMKKNMMFIKTCACHYNCPGDNDIFESLYYRKMYGDMA | + | NS3 | 1 | –
5 | CCDC66 (protein, UniProt A2RUB6 1-948, looked up) Coiled-coil domain-containing …: MNLGDGLKLETELLDGKTKLILSPYEHKSKISVKMGNKAKIAKCPLRTKTGHILKSTQDTCIGSEKLLQKKPVGSETSQAKGEKNGMTFSSTKDLCKQCIDKDCLHIQKEISPATPNMQKTRNTVNTSLVGKQKPHKKHITAENMKSSLVCLTQDQLQQILMTVNQGNRSLSLTENGKEAKSQYSLYLNSISNQPKDENIMGLFKKTEMVSSVPAENKSVLNEHQETSKQCEQKIAIENEWKPADIFSTLGERECDRSSLEAKKAQWRKELDEQVALKKKEKEVSEKWNDPWKKSESDKIIWEKHQILDQSRETVLLEHPFSAVKQELQRKWIEELNKQIEDDRQRKIEEKIIYSKGEEHDRWAMHFDSLKSYPGSQSQLFSQSTHKQPEYFCVSPDTQELADVSSVCTPTTGSQVEPSEEEHIAKPIKDVVMANSKKTNFLRSMTALLDPAQIEERDRRRQKQLEHQKAITAQVEEKRRKKQLEEEQRKKEEQEEELRLAQEREEMQKQYEEDILKQKQKEEIMTLKTNELFQTMQRAQELAQRLKQEQRIRELAQKGHDTSRLIKNLGVDTIQMEYNASNISNSRHDSDEISGKMNTYMNSTTSKKDTGVQTDDLNIGIFTNAESHCGSLMERDITNCSSPEISAELIGQFSTKKNKQELTQDKGASLEKENNRCNDQCNQFTRIEKQTKHMKKYPKRPDWNINKPPKRYIPASEKYPKQLQKQREEKKVRRQMELLHLVEKNNPGHLSQNRGISPEIFHSSHQETESKLRWHLVKKEEEPLNIHSFSKERSPSSPVPVVKNRTQQTQNTLHLPLKNSSYERENLISGSNQTELSSGISESSHFIPYVRTNEIYYLDPDAPLSGPSTQDPQYQNSQDCGQKRQLFDSDCVRDPLLNPNMVKNRDRQQAILKGLSELRQGLLQKQKELESSLLPLAENQEESFGSSF | + | NS3 | 1 | 4
6 | DEAF1 (protein, UniProt O75398 1-565, looked up) Deformed epidermal …: MEDSDSAAKQLGLAEAAAVAAAAAVAAAAAAAAGGEAEEPVLSRDEDSEEDADSEAERETPRVTAVAVMAAEPGHMDMGAEALPGPDEAAAAAAFAEVTTVTVANVGAAADNVFTTSVANAASISGHVLSGRTALQIGDSLNTEKATLIVVHTDGSIVETTGLKGPAAPLTPGPQSPPTPLAPGQEKGGTKYNWDPSVYDSELPVRCRNISGTLYKNRLGSGGRGRCIKQGENWYSPTEFEAMAGRASSKDWKRSIRYAGRPLQCLIQDGILNPHAASCTCAACCDDMTLSGPVRLFVPYKRRKKENELPTTPVKKDSPKNITLLPATAATTFTVTPSGQITTSGALTFDRASTVEATAVISESPAQGDVFAGATVQEASVQPPCRASHPEPHYPGYQDSCQIAPFPEAALPTSHPKIVLTSLPALAVPPPTPTKAAPPALVNGLELSEPRSWLYLEEMVNSLLNTAQQLKTLFEQAKHASTYREAATNQAKIHADAERKEQSCVNCGREAMSECTGCHKVNYCSTFCQRKDWKDHQHICGQSAAVTVQADEVHVAESVMEKVTV | + | NS3 | 6 | –
7 | CD5L (protein, UniProt O43866 20-347, looked up) CD5 antigen-like: SPSGVRLVGGLHRCEGRVEVEQKGQWGTVCDDGWDIKDVAVLCRELGCGAASGTPSGILYEPPAEKEQKVLIQSVSCTGTEDTLAQCEQEEVYDCSHDEDAGASCENPESSFSPVPEGVRLADGPGHCKGRVEVKHQNQWYTVCQTGWSLRAAKVVCRQLGCGRAVLTQKRCNKHAYGRKPIWLSQMSCSGREATLQDCPSGPWGKNTCNHDEDTWVECEDPFDLRLVGGDNLCSGRLEVLHKGVWGSVCDDNWGEKEDQVVCKQLGCGKSLSPSFRDRKCYGPGVGRIWLDNVRCSGEEQSLEQCQHRFWGFHDCTHQEDVAVICSG | + | NS3 | 1 | 1
